From paper PMC6393702

T1: His-Vfr (UniProt P55222 1-214)
T1 sequence: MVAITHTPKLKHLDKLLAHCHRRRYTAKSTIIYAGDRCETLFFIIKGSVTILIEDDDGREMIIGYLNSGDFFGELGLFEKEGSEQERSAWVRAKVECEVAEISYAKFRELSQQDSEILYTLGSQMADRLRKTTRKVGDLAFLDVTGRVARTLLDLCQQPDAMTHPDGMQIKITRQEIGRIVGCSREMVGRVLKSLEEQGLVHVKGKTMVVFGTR


Biological target: T1, His-Vfr
Test: EMSA

Row | Binder | binding result
1 | Vfr CRE probe (dsDNA) DNA 1: TCCACGACAATGTGCCTCGCTTGGAAGCTCACGCTCCTCACACAGACGAAAAC DNA 2: GTTTTCGTCTGTGTGAGGAGCGTGAGCTTCCAAGCGAGGCACATTGTCGTGGA | binds
2 | Vfr CRE-Δ probe (dsDNA) DNA 1: TCCACGACAACCCACCTCGCTTGGAAGCTCACGCTCCTCACACAGACGAAAAC DNA 2: GTTTTCGTCTGTGTGAGGAGCGTGAGCTTCCAAGCGAGGTGGGTTGTCGTGGA | no binding
